Assay results: PMC3084762, “Distinct Properties of Hexameric but Functionally Conserved Mycobacterium tuberculosis Transcription-Repair Coupling Factor” (PLoS ONE, 2011)

B1: Mycobacterium tuberculosis Mfd (transcription-repair coupling factor), full length, His-tagged (natural protein)
chain: MTAPGPACSDTPIAGLVELALSAPTFQQLMQRAGGRPDELTLIAPASARLLVASALARQGPLLVVTATGREADDLAAELRGVFGDAVALLPSWETLPHERLSPGVDTVGTRLMALRRLAHPDDAQLGPPLGVVVTSVRSLLQPMTPQLGMMEPLTLTVGDESPFDGVVARLVELAYTRVDMVGRRGEFAVRGGILDIFAPTAEHPVRVEFWGDEITEMRMFSVADQRSIPEIDIHTLVAFACRELLLSEDVRARAAQLAARHPAAESTVTGSASDMLAKLAEGIAVDGMEAVLPVLWSDGHALLTDQLPDGTPVLVCDPEKVRTRAADLIRTGREFLEASWSVAALGTAENQAPVDVEQLGGSGFVELDQVRAAAARTGHPWWTLSQLSDESAIELDVRAAPSARGHQRDIDEIFAMLRAHIATGGYAALVAPGTGTAHRVVERLSESDTPAGMLDPGQAPKPGVVGVLQGPLRDGVIIPGANLVVITETDLTGSRVSAAEGKRLAAKRRNIVDPLALTAGDLVVHDQHGIGRFVEMVERTVGGARREYLVLEYASAKRGGGAKNTDKLYVPMDSLDQLSRYVGGQAPALSRLGGSDWANTKTKARRAVREIAGELVSLYAKRQASPGHAFSPDTPWQAELEDAFGFTETVDQLTAIEEVKADMEKPIPMDRVICGDVGYGKTEIAVRAAFKAVQDGKQVAVLVPTTLLADQHLQTFGERMSGFPVTIKGLSRFTDAAESRAVIDGLADGSVDIVIGTHRLLQTGVRWKDLGLVVVDEEQRFGVEHKEHIKSLRTHVDVLTMSATPIPRTLEMSLAGIREMSTILTPPEERYPVLTYVGPHDDKQIAAALRRELLRDGQAFYVHNRVSSIDAAAARVRELVPEARVVVAHGQMPEDLLETTVQRFWNREHDILVCTTIVETGLDISNANTLIVERADTFGLSQLHQLRGRVGRSRERGYAYFLYPPQVPLTETAYDRLATIAQNNELGAGMAVALKDLEIRGAGNVLGIEQSGHVAGVGFDLYVRLVGEALETYRDAYRAAADGQTVRTAEEPKDVRIDLPVDAHLPPDYIASDRLRLEGYRRLAAASSDREVAAVVDELTDRYGALPEPARRLAAVARLRLLCRGSGITDVTAASAATVRLSPLTLPDSAQVRLKRMYPGAHYRATTATVQVPIPRAGGLGAPRIRDVELVQMVADLITALAGKPRQHIGITNPSPPGEDGRGRNTTIKERQP
notes: also called MtbMfd; His-tagged MtbMfd; not shown: His tag, N-terminal, kept
B2: MtbMfd, endogenous in M. tuberculosis H37Ra cell lysate (natural protein)
chain: B1 chain
B3: purified untagged or native MtbMfd (natural protein)
chain: B1 chain
notes: also called untagged MtbMfd

How the values were obtained:
[1] = target: T1, NTD of MtbMfd (Mycobacterium tuberculosis, UniProt P9WMQ5)
T1 construct: gene mfd

[2] = target: the molecule itself; assay: dynamic light scattering
[3] = target: the molecule itself; assay: SEC

Molecule	Ksv [1]	stoichiometry N [2]	stoichiometry N [3]
Nc1ncnc2c1ncn2[C@@H]1O[C@H](COP(=O)(O)OP(=O)(O)OP(=O)(O)O)[C@@H](O)[C@H]1O [ATP]	526 µM		
B1		~6	6
B2			6
B3			6
